Measurements published in paper PMC5906681, “BRI1 and BAK1 interact with G proteins and regulate sugar-responsive growth and development in Arabidopsis” (Nature Communications, 2018).

T1: GST-fused BRI1 kinase domain (Arabidopsis, UniProt O22476 814-1196)
T1 construct: BRASSINOSTEROID … 1 (BRI1), Arabidopsis, kinase domain, residues 814-1196; also called GST-BRI1-KD; BRI1-KD; source: E. coli (pGEX-4T-1); not shown: GST, N-terminal, kept
T1 sequence (looked up): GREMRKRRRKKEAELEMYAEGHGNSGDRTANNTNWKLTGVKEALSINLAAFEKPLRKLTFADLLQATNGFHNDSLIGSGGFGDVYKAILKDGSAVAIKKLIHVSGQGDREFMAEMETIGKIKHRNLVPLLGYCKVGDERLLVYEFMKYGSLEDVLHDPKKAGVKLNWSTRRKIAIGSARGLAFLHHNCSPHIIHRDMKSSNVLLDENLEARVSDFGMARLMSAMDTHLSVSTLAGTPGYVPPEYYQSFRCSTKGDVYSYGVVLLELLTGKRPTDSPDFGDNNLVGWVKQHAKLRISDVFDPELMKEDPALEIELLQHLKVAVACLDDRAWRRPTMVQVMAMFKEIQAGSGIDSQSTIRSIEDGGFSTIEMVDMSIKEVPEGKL

B1: MBP-AGG1 (natural protein, Arabidopsis, UniProt Q9FDX9 1-98, looked up)
chain: MREETVVYEQEESVSHGGGKHRILAELARVEQEVAFLEKELKEVENTDIVSTVCEELLSVIEKGPDPLLPLTNGPLNLGWDRWFEGPNGGEGCRCLIL
notes: AGG1, Arabidopsis G protein gamma subunit 1; also called G protein gamma subunit; source: E. coli (pMAL-c2); not shown: MBP, N-terminal, kept
B2: MBP-AGG3 (natural protein, Arabidopsis, UniProt Q6AWT8 1-251, looked up)
chain: MSAPSGGGEGGGKESAAGGVSSSSLAPSSLPPPRPKSPPEYPDLYGKRREAARVQMLEREIGFLEGEIKFIEGVQPASRCIKEVSDFVVANSDPLIPAQRKSRRSFRFWKWLCGPCLSLVSFCCCCQSKCSCHLRKPKCCNCTSCSCIGSKCCDGSCCSNICCCPRLSCPSCSCFRGCWCSCPDMSCCIPSCFRSCSCTRPSCLNKKKSSCCSCNCKIRWSSCFSCPKVRLCSCCFCNCKNLCSNPCCLAF
notes: AGG3, Arabidopsis G protein gamma subunit 3; also called G protein gamma subunit; source: E. coli (pMAL-c2); not shown: MBP, N-terminal, kept
B3: MBP-AGB1 (natural protein, Arabidopsis, UniProt P49177 1-377, looked up)
chain: MSVSELKERHAVATETVNNLRDQLRQRRLQLLDTDVARYSAAQGRTRVSFGATDLVCCRTLQGHTGKVYSLDWTPERNRIVSASQDGRLIVWNALTSQKTHAIKLPCAWVMTCAFSPNGQSVACGGLDSVCSIFSLSSTADKDGTVPVSRMLTGHRGYVSCCQYVPNEDAHLITSSGDQTCILWDVTTGLKTSVFGGEFQSGHTADVLSVSISGSNPNWFISGSCDSTARLWDTRAASRAVRTFHGHEGDVNTVKFFPDGYRFGTGSDDGTCRLYDIRTGHQLQVYQPHGDGENGPVTSIAFSVSGRLLFAGYASNNTCYVWDTLLGEVVLDLGLQQDSHRNRISCLGLSADGSALCTGSWDSNLKIWAFGGHRRVI
notes: AGB1, Arabidopsis G protein beta subunit; Cloned into the EcoR I and Pst I sites of pMAL-c2; also called G protein beta subunit; source: E. coli (pMAL-c2); not shown: MBP, N-terminal, kept
B4: MBP-AGG2 (natural protein, Arabidopsis, UniProt Q93V47 1-100, looked up)
chain: MEAGSSNSSGQLSGRVVDTRGKHRIQAELKRLEQEARFLEEELEQLEKMDNASASCKEFLDSVDSKPDPLLPETTGPVNATWDQWFEGPKEAKRCGCSIL
notes: AGG2, Arabidopsis G protein gamma subunit 2; also called G protein gamma subunit; source: E. coli (pMAL-c2); not shown: MBP, N-terminal, kept

target: T1, GST-fused BRI1 kinase domain; test: pull-down; about 15 μg GST fusion with about 30 μg MBP fusion in 900 μL TGH buffer (10% glycerol, 1% Triton X-100, 1.5 mM MgCl2, 150 mM NaCl, 1 mM EGTA, 50 mM HEPES, pH 7.5); 30 μL GST beads, about 1 h; immunoblot with anti-MBP and anti-GST; conditions: both partners purified

Binding result, binds:
B1
B2
B3
B4
